# Patent US20130202609A1 (Novartis, published 2013)
# Target: T1, 150 kDa C-terminal fragment of wild-type GAS57 (Streptococcus pyogenes (M1 SF370))
# T1 construct: also called 150 kDa fragment; 150.5 kDa fragment
# T1 chain: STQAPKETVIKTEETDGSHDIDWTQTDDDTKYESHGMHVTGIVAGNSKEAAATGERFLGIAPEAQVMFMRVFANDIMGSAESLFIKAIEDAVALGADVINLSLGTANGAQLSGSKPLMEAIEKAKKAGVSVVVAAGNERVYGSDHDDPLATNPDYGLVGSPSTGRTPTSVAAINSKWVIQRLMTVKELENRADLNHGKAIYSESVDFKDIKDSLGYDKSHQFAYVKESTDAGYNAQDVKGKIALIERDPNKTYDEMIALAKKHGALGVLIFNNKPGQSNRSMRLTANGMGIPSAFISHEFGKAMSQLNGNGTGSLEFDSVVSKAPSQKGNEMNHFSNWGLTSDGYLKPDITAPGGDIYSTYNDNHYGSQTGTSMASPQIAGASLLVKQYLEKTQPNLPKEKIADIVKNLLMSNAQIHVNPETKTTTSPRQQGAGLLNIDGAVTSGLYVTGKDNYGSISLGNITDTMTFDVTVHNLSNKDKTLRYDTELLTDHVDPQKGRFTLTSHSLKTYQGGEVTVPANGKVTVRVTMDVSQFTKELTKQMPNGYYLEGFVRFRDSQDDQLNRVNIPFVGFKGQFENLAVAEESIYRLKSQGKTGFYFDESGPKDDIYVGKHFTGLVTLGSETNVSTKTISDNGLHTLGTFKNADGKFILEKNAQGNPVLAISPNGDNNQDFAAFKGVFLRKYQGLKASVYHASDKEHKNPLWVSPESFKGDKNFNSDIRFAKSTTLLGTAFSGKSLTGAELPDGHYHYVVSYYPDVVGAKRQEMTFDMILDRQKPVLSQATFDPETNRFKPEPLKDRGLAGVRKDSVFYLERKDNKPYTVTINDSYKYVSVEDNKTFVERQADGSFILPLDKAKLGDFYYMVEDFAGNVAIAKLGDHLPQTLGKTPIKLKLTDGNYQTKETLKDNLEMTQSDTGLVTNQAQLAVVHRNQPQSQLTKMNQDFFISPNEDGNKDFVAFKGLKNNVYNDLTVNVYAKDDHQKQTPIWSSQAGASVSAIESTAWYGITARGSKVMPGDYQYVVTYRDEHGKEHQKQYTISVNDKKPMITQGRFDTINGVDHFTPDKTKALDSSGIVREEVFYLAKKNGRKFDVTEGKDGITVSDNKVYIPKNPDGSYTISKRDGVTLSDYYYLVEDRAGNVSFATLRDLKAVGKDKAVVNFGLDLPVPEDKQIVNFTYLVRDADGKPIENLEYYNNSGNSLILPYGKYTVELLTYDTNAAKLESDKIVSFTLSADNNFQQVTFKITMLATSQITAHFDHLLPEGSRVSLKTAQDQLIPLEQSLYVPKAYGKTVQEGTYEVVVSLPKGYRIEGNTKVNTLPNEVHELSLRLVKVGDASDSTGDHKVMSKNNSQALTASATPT
# Assay: co-purification on Ni-chelating affinity column and gel filtration; SDS-PAGE
binder,measurement,value
"23 kDa N-terminal fragment of wild-type GAS57 (other, also called 23 kDa fragment; 23.4 kDa fragment) ADELSTMSEPTITNHAQQQAQHLTNTELSSAESKSQDTSQITLKTNREKEQSQDLVSEPTTTELADTDAASMANTGSDATQKSASLPPVNTDVHDWVKTKGAWDKGYKGQGKVVAVIDTGIDPAHQSMRISDVSTAKVKSKEDMLARQKAAGINYGSWINDKVVFAHNYVENSDNIKENQFEDFDEDWENFEFDAEAEPKAIKKHKIYRPQ",binding result,binds
